According to PMC10901774, “Mirror-image ligand discovery enabled by single-shot fast-flow synthesis of D-proteins” (Nature Communications, 2024):

Details: pH 7.4
Protocol: For protein targets with no known binding partners and no available activity assays (ERG and IRAK2), we recorded circular dichroism (CD) spectra and compared them to recombinantly derived material.
ERG and IRAK2 Circular Dichroism
Before analysis, all proteins were exchanged into CD buffer (10 mM KP i, 5% glycerol v/v, pH 7.4).
Fast protein liquid chromatography (FPLC) purification was performed using GE Life Sciences
columns on an ÄKTA Pure FPLC system. The ÄKTA Pure, FPLC columns, and all buffers were
stored and subsequently used in a cold room maintained at 4 °C. HiTrap™ Desalting 5 mL: Before
desalting, the column was equilibrated with 20 mL of the CD buffer at 2 mL/min or until the
conductance reading from the ÄKTA Pure stabilizes, whichever is the greater volume. Up to 1.5
mL of sample was loaded into the column using a syringe fitted with a compatible male-end screw
tip, and then the loaded column was attached to the ÄKTA Pure. An isocratic flow of buffer (2 CV) […]
protein solution was determined with Method 1.6.1. […]
mg/mL with additions of CD buffer. All CD spectra were recorded on an AVIV Model 420 Circular […]
Before all readings, cuvettes were cleaned with Hellmanex™ 3 concentrate according to
manufacturer directions. Far circular dichroism spectra were recorded as the average of three […]
with 2 nm bandwidth and 8 second averaging time. Spectra were recorded between 0 and 110 […]

B1: Recombinant ERG: ERG (115-208) recombinantly expressed in E. coli (protein, UniProt P11308 115-208, looked up, fragment)
chain: PPNMTTNERRVIVPADPTLWSTDHVRQWLEWAVKEYGLPDVNILLFQNIDGKELCKMTKDDFQRLTPSYNADILLSHLHYLRETPLPHLTSDDV
  TM (melting temperature), ERG: 71.7±0.8 ºC
